From article doi:10.1101/2025.04.14.648764 (bioRxiv, 2025)

Biological target: the molecule itself
Assay: dynamic light scattering

Protein | stoichiometry N
AGT WT (enzyme, human) MASHKLLVTPPKALLKPLSIPNQLLLGPGPSNLPPRIMAAGGLQMIGSMSKDMYQIMDEIKEGIQYVFQTRNPLTLVISGSGHCALEAALVNVLEPGDSFLVGANGIWGQRAVDIGERIGARVHPMTKDPGGHYTLQEVEEGLAQHKPVLLFLTHGESSTGVLQPLDGFGELCHRYKCLLLVDSVASLGGTPLYMDRQGIDILYSGSQKALNAPPGTSLISFSDKAKKKMYSRKTKPFSFYLDIKWLANFWGCDDQPRMYHHTIPVISLYSLRESLALIAEQGLENSWRQHREAAAYLHGRLQALGLQLFVKDPALRLPTVTTVAVPAGYDWRDIVSYVIDHFDIEIMGGLGPSTGKVLRIGLLGCNATRENVDRVTEALRAALQHCPKKKL | 2
AGT LM (enzyme, human) MASHKLLVTPLKALLKPLSIPNQLLLGPGPSNLPPRIMAAGGLQMIGSMSKDMYQIMDEIKEGIQYVFQTRNPLTLVISGSGHCALEAALVNVLEPGDSFLVGANGIWGQRAVDIGERIGARVHPMTKDPGGHYTLQEVEEGLAQHKPVLLFLTHGESSTGVLQPLDGFGELCHRYKCLLLVDSVASLGGTPLYMDRQGIDILYSGSQKALNAPPGTSLISFSDKAKKKMYSRKTKPFSFYLDIKWLANFWGCDDQPRMYHHTIPVISLYSLRESLALIAEQGLENSWRQHREAAAYLHGRLQALGLQLFVKDPALRLPTVTTVAVPAGYDWRDIVSYVMDHFDIEIMGGLGPSTGKVLRIGLLGCNATRENVDRVTEALRAALQHCPKKKL | 2
AGT LM-p.I244T (enzyme, human) MASHKLLVTPLKALLKPLSIPNQLLLGPGPSNLPPRIMAAGGLQMIGSMSKDMYQIMDEIKEGIQYVFQTRNPLTLVISGSGHCALEAALVNVLEPGDSFLVGANGIWGQRAVDIGERIGARVHPMTKDPGGHYTLQEVEEGLAQHKPVLLFLTHGESSTGVLQPLDGFGELCHRYKCLLLVDSVASLGGTPLYMDRQGIDILYSGSQKALNAPPGTSLISFSDKAKKKMYSRKTKPFSFYLDTKWLANFWGCDDQPRMYHHTIPVISLYSLRESLALIAEQGLENSWRQHREAAAYLHGRLQALGLQLFVKDPALRLPTVTTVAVPAGYDWRDIVSYVMDHFDIEIMGGLGPSTGKVLRIGLLGCNATRENVDRVTEALRAALQHCPKKKL | 2
AGT LM p.S81D (enzyme, human) MASHKLLVTPLKALLKPLSIPNQLLLGPGPSNLPPRIMAAGGLQMIGSMSKDMYQIMDEIKEGIQYVFQTRNPLTLVISGDGHCALEAALVNVLEPGDSFLVGANGIWGQRAVDIGERIGARVHPMTKDPGGHYTLQEVEEGLAQHKPVLLFLTHGESSTGVLQPLDGFGELCHRYKCLLLVDSVASLGGTPLYMDRQGIDILYSGSQKALNAPPGTSLISFSDKAKKKMYSRKTKPFSFYLDIKWLANFWGCDDQPRMYHHTIPVISLYSLRESLALIAEQGLENSWRQHREAAAYLHGRLQALGLQLFVKDPALRLPTVTTVAVPAGYDWRDIVSYVMDHFDIEIMGGLGPSTGKVLRIGLLGCNATRENVDRVTEALRAALQHCPKKKL | 2
AGT WT p.S81D (enzyme, human) MASHKLLVTPPKALLKPLSIPNQLLLGPGPSNLPPRIMAAGGLQMIGSMSKDMYQIMDEIKEGIQYVFQTRNPLTLVISGDGHCALEAALVNVLEPGDSFLVGANGIWGQRAVDIGERIGARVHPMTKDPGGHYTLQEVEEGLAQHKPVLLFLTHGESSTGVLQPLDGFGELCHRYKCLLLVDSVASLGGTPLYMDRQGIDILYSGSQKALNAPPGTSLISFSDKAKKKMYSRKTKPFSFYLDIKWLANFWGCDDQPRMYHHTIPVISLYSLRESLALIAEQGLENSWRQHREAAAYLHGRLQALGLQLFVKDPALRLPTVTTVAVPAGYDWRDIVSYVIDHFDIEIMGGLGPSTGKVLRIGLLGCNATRENVDRVTEALRAALQHCPKKKL | 2
AGT LM-p.I244T p.S81D (enzyme, human) MASHKLLVTPLKALLKPLSIPNQLLLGPGPSNLPPRIMAAGGLQMIGSMSKDMYQIMDEIKEGIQYVFQTRNPLTLVISGDGHCALEAALVNVLEPGDSFLVGANGIWGQRAVDIGERIGARVHPMTKDPGGHYTLQEVEEGLAQHKPVLLFLTHGESSTGVLQPLDGFGELCHRYKCLLLVDSVASLGGTPLYMDRQGIDILYSGSQKALNAPPGTSLISFSDKAKKKMYSRKTKPFSFYLDTKWLANFWGCDDQPRMYHHTIPVISLYSLRESLALIAEQGLENSWRQHREAAAYLHGRLQALGLQLFVKDPALRLPTVTTVAVPAGYDWRDIVSYVMDHFDIEIMGGLGPSTGKVLRIGLLGCNATRENVDRVTEALRAALQHCPKKKL | 2
AGT LM-p.G170R p.S81D (enzyme, human) MASHKLLVTPLKALLKPLSIPNQLLLGPGPSNLPPRIMAAGGLQMIGSMSKDMYQIMDEIKEGIQYVFQTRNPLTLVISGDGHCALEAALVNVLEPGDSFLVGANGIWGQRAVDIGERIGARVHPMTKDPGGHYTLQEVEEGLAQHKPVLLFLTHGESSTGVLQPLDGFRELCHRYKCLLLVDSVASLGGTPLYMDRQGIDILYSGSQKALNAPPGTSLISFSDKAKKKMYSRKTKPFSFYLDIKWLANFWGCDDQPRMYHHTIPVISLYSLRESLALIAEQGLENSWRQHREAAAYLHGRLQALGLQLFVKDPALRLPTVTTVAVPAGYDWRDIVSYVMDHFDIEIMGGLGPSTGKVLRIGLLGCNATRENVDRVTEALRAALQHCPKKKL | 2
AGT LM-p.I244T p.S81A (enzyme, human) MASHKLLVTPLKALLKPLSIPNQLLLGPGPSNLPPRIMAAGGLQMIGSMSKDMYQIMDEIKEGIQYVFQTRNPLTLVISGAGHCALEAALVNVLEPGDSFLVGANGIWGQRAVDIGERIGARVHPMTKDPGGHYTLQEVEEGLAQHKPVLLFLTHGESSTGVLQPLDGFGELCHRYKCLLLVDSVASLGGTPLYMDRQGIDILYSGSQKALNAPPGTSLISFSDKAKKKMYSRKTKPFSFYLDTKWLANFWGCDDQPRMYHHTIPVISLYSLRESLALIAEQGLENSWRQHREAAAYLHGRLQALGLQLFVKDPALRLPTVTTVAVPAGYDWRDIVSYVMDHFDIEIMGGLGPSTGKVLRIGLLGCNATRENVDRVTEALRAALQHCPKKKL | 2
AGT LM-p.G170R p.S81A (enzyme, human) MASHKLLVTPLKALLKPLSIPNQLLLGPGPSNLPPRIMAAGGLQMIGSMSKDMYQIMDEIKEGIQYVFQTRNPLTLVISGAGHCALEAALVNVLEPGDSFLVGANGIWGQRAVDIGERIGARVHPMTKDPGGHYTLQEVEEGLAQHKPVLLFLTHGESSTGVLQPLDGFRELCHRYKCLLLVDSVASLGGTPLYMDRQGIDILYSGSQKALNAPPGTSLISFSDKAKKKMYSRKTKPFSFYLDIKWLANFWGCDDQPRMYHHTIPVISLYSLRESLALIAEQGLENSWRQHREAAAYLHGRLQALGLQLFVKDPALRLPTVTTVAVPAGYDWRDIVSYVMDHFDIEIMGGLGPSTGKVLRIGLLGCNATRENVDRVTEALRAALQHCPKKKL | 2
AGT LM p.S81A (enzyme, human) MASHKLLVTPLKALLKPLSIPNQLLLGPGPSNLPPRIMAAGGLQMIGSMSKDMYQIMDEIKEGIQYVFQTRNPLTLVISGAGHCALEAALVNVLEPGDSFLVGANGIWGQRAVDIGERIGARVHPMTKDPGGHYTLQEVEEGLAQHKPVLLFLTHGESSTGVLQPLDGFGELCHRYKCLLLVDSVASLGGTPLYMDRQGIDILYSGSQKALNAPPGTSLISFSDKAKKKMYSRKTKPFSFYLDIKWLANFWGCDDQPRMYHHTIPVISLYSLRESLALIAEQGLENSWRQHREAAAYLHGRLQALGLQLFVKDPALRLPTVTTVAVPAGYDWRDIVSYVMDHFDIEIMGGLGPSTGKVLRIGLLGCNATRENVDRVTEALRAALQHCPKKKL | 2
AGT WT p.S81A (enzyme, human) MASHKLLVTPPKALLKPLSIPNQLLLGPGPSNLPPRIMAAGGLQMIGSMSKDMYQIMDEIKEGIQYVFQTRNPLTLVISGAGHCALEAALVNVLEPGDSFLVGANGIWGQRAVDIGERIGARVHPMTKDPGGHYTLQEVEEGLAQHKPVLLFLTHGESSTGVLQPLDGFGELCHRYKCLLLVDSVASLGGTPLYMDRQGIDILYSGSQKALNAPPGTSLISFSDKAKKKMYSRKTKPFSFYLDIKWLANFWGCDDQPRMYHHTIPVISLYSLRESLALIAEQGLENSWRQHREAAAYLHGRLQALGLQLFVKDPALRLPTVTTVAVPAGYDWRDIVSYVIDHFDIEIMGGLGPSTGKVLRIGLLGCNATRENVDRVTEALRAALQHCPKKKL | 2
AGT LM-p.G170R (enzyme, human) MASHKLLVTPLKALLKPLSIPNQLLLGPGPSNLPPRIMAAGGLQMIGSMSKDMYQIMDEIKEGIQYVFQTRNPLTLVISGSGHCALEAALVNVLEPGDSFLVGANGIWGQRAVDIGERIGARVHPMTKDPGGHYTLQEVEEGLAQHKPVLLFLTHGESSTGVLQPLDGFRELCHRYKCLLLVDSVASLGGTPLYMDRQGIDILYSGSQKALNAPPGTSLISFSDKAKKKMYSRKTKPFSFYLDIKWLANFWGCDDQPRMYHHTIPVISLYSLRESLALIAEQGLENSWRQHREAAAYLHGRLQALGLQLFVKDPALRLPTVTTVAVPAGYDWRDIVSYVMDHFDIEIMGGLGPSTGKVLRIGLLGCNATRENVDRVTEALRAALQHCPKKKL | 2
